The target of the test is ZnF domain of A. thaliana SPL5 (Ser60-Leu127) (A. thaliana) (UniProt Q9S758). As to the kind of experiment: ITC.

pKd: −log10 of the molar value.

Results on one substance are retold here after publication doi:10.1101/2023.06.19.545293.

Sequence of ZnF domain of A. thaliana SPL5 (Ser60-Leu127) (A. thaliana) (Q9S758 60-127): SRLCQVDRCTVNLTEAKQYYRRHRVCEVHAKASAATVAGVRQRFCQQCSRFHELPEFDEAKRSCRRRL

Regarding “SAP05 (mature, Ala33-Lys135) of Aster Yellows phytoplasma strain Witches Broom (natural protein)”, the negative-log Kd (pKd) was 6.35 and the stoichiometry N turned out to be 1.
